# Reference: publication PMC4029521
# Test system: T1, AirR (Staphylococcus aureus NCTC8325), ORF:f68b8ed8
# T1 sequence: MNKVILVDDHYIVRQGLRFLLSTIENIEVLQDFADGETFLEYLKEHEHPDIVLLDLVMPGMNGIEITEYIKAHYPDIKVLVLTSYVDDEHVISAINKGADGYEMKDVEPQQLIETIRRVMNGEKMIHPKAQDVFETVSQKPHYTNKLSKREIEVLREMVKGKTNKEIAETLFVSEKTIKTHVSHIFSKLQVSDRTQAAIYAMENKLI
# Assay: EMSA
row,Sequence,binding
1,AGCTACACGTAATTTCGCGCTTCGTGCTCTGTTATTGTCATCTAAATCTTCTTCTGTAGCGGTAATCGGTTTACGATTAACACGCTTTAACTTAGGTGTATATGCTTCTGGTATAACTGGTAATCCTCTTGGTACCTCTGGACCTTTTTCATATTCTTGGAACACCTGTTTACATAAACGATCTTCTAAAGAATGGAAAGTGATTACCGAAATCCTGCCATCTACTTTCACTAATTCAATCGCTTGTTCTATTGAATC (double strand) [pbp1 promoter (p-pbp1)],binds
2,GAATCGCGAACATGGACGAACGATTAGTTGTTAATTTTGAAAATTTATAAAAGGTTAAACGAATGCAGTGAGAGATGTCATTTTAATATCAATGTATGGCTATTTTGTAATGACAATGTAATGAGTTTAGTAAAACATTTCGGGAATATTAAATAGTTGGAAAATGAGAATTAAATCCTTTACTCAGTTGTCTAATTCTTTTAGTATGTGCAGTACAGTTTAATTGAAAACTAACTTTAACTTTAATGGAGGATGTTTTATACATGAAAAAATTAACAGCAGCAGCGATTGC (double strand) [lytM promoter (p-lytM)],binds
